Data taken from patent US20050069569A1.
Read-outs that look alike come from different tables or passages of the source. Blank lines part the entries; values can stand above or below the molecule they belong to.

What was measured:
[1] = molecular target: secPHEX (soluble, secreted form of recombinant human PHEX) (human) (UniProt P78562); test: cell-based or functional assay
PTHrP107-139 (human) [2] = system: T1, PTHrP107-139 (human)
T1 sequence: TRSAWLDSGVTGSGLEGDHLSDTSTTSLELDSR

PTHrP107-139 (human) [3] = molecular target: T2, PTHrP107-139 (human)
T2 chain: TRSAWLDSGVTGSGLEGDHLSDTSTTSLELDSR

50% inhibition of secPHEX-mediated PTHrP107-139 hydrolysis (HPLC) [1]: 3.6 µM
inhibition of secPHEX activity at 5×10^-6 M osteocalcin [1]: 75%
Molecule: osteocalcin (human, extracted from bones, with Gla residues) (from UniProt P02818 52-100)

Molecule: secPHEX (soluble, secreted form of recombinant human PHEX)
degradation of PTHrP107-139 (HPLC) (PTHrP107-139 (human) [2]): approximately 75 to 80% degradation of the peptide was observed

B1: secPHEXE581V (inactive soluble human PHEX with Glu 581 replaced by Val) (protein)
chain: QGLLSLQAKQEYCLKPECIEAAAAILSKVNLSVDPCDNFFRFACDGWISNNPIPEDMPSYGVYPWLRHNVDLKLKELLEKSISRRRDTEAIQKAKILYSSCMNEKAIEKADAKPLLHILRHSPFRWPVLESNIGPEGVWSERKFSLLQTLATFRGQYSNSVFIRLYVSPDDKASNEHILKLDQATLSLAVREDYLDNSTEAKSYRDALYKFMVDTAVLLGANSSRAEHDMKSVLRLEIKIAEIMIPHENRTSEAMYNKMNISELSAMIPQFDWLGYIKKVIDTRLYPHLKDISPSENVVVRVPQYFKDLFRILGSERKKTIANYLVWRMVYSRIPNLSRRFQYRWLEFSRVIQGTTTLLPQWDKCVNFIESALPYVVGKMFVDVYFQEDKKEMMEELVEGVRWAFIDMLEKENEWMDAGTKRKAKEKARAVLAKVGYPEFIMNDTHVNEDLKAIKFSEADYFGNVLQTRKYLAQSDFFWLRKAVPKTEWFTNPTTVNAFYSASTNQIRFPAGELQKPFFWGTEYPRSLSYGAIGVIVGHVFTHGFDNNGRKYDKNGNLDPWWSTESEEKFKEKTKCMINQYSNYYWKKAGLNVKGKRTLG
degradation of PTHrP107-139 (HPLC) (PTHrP107-139 (human) [3]): purified secPHEXE581V failed to degrade PTHrP107-139 under similar conditions
